Source: patent US20230203153A1 (CHILDREN S MEDICAL CENTER, published 2023)
Where “and” joins values, the source holds several entries; their conditions need not be identical. Equal values may be shown once. Read-outs that look alike come from different tables or passages of the source. Bridge positions count the residues as written; N and C are the ends. Ends that are not written are not given here. * marks the point of attachment. Biotin = O=C1N[C@H]2[C@H](CS[C@H]2CCCCC(=O)*)N1

T1: 'scrambled' (neg. ctrl.) peptide (also: conjugated to BSA)
T1 construct: also called scrambled|BSA peptide
T1 peptide: GFEALGTAIRYPMGQR

T2: ABCB4 peptide segment corresponding to the ABCB5 linear epitope peptide (human, UniProt P21439 957-972, limits assumed)
T2 construct: domain: corresponding peptide segment (3rd extracellular loop); also called homologous control peptide
T2 peptide (looked up): RFGAYLIVNGHMRFRD

T3: ABCB5 linear epitope peptide (3rd extracellular loop) (human)
T3 construct: Synthetic linear peptide, used at 20 uM in the ELISA; 104; also called ABCB5 peptide; linear peptide
T3 peptide: RFGAYLIQAGRMTPEG

T4: cyclic (biotinylated) ABCB5 peptide (human, disulfide 1-18)
T4 construct: immobilised at 200 nM on streptavidin-precoated plates; also called cyclic ABCB5 peptide
T4 peptide: Biotin-CRFGAYLIQAGRMTPEGC

T5: cyclic 'scrambled' (neg. ctrl.) peptide (disulfide 1-18)
T5 construct: also called cycl. 'scrambled'
T5 peptide: Biotin-CGFEALGTAIRYPMGQRC

T6: ABCB1 peptide segment corresponding to the ABCB5 linear epitope peptide (human, UniProt P08183 958-973, limits assumed)
T6 construct: domain: corresponding peptide segment (3rd extracellular loop); also called homologous control peptide
T6 peptide (looked up): RFGAYLVAHKLMSFED

T7: ABCB11 peptide segment corresponding to the ABCB5 linear epitope peptide (human, UniProt O95342 1001-1016, limits assumed)
T7 construct: domain: corresponding peptide segment (3rd extracellular loop); also called homologous control peptide
T7 peptide (looked up): RYGGYLISNEGLHFSY

B1: ABCB5-Ab100 (antibody, human IgG1, kappa, V domains shown)
VH: EVQLVESGGGLVQPGGSLRLSCAASGFTFSSYSMNWVRQAPGKGLEWVSYISSSSSTIYYADSVKGRFTISRDNAKNSLYLQMNSLRDEDTAVYYCASNYQYGDYGGYWGRGTLVTVSS
VL: AIQLTQSPSSLTGSVGDRVTITCQASHDISNFLNWYQQKPGQAPKLLIYDAYNLQTGVPSRFSGTGSGTHFTLTINSLQPEDVGTYFCQQYDYFLSITFGQGTRLEIKR
B2: ABCB5-Ab101 (antibody, human IgG1, kappa, V domains shown)
VH: QVQLVQSGAEVKKPGASVKVSCKASGYTFTSYYMHWVRQAPGQGLEWMGIINPSGGSTSYAQKFQGRVTMTRDTSTSTVYMELSSLRSEDTAVYYCARDQAVTGTAYYYYYGMDVWGQGTTVTVSS
VL: EIVLTQSPGTLSLSPGERATLSCRASQSVNSNYLAWYQQKPGQAPRLLIYGTSSRATGIPDSFSGSGSGTDFTLTISRLEPEDFAVYYCQQFGSSPLTFGGGTKVEIKR
notes: Fully human monoclonal IgG1 kappa
B3: ABCB5-Ab43 (antibody, V domains shown)
VH: QVQLVQSGAEVKKPGASVKVSCKASGYTFTSYYMHWVRQSPGQGLEWMGIINPSGGSTSYAQKFQGRVTMTRDTSTSTVYMELSSLRSEDTAVYYCARDQAVTGTAYYYYYGMDVWGQGTTVTVSS
VL: EIVLTQSPGTLSLSPGERATLSCRASQSVNSKYLAWYQQKPGQAPRLLIYGTSSRATGIPDSFSGSGSGTDFTLTISRLEPEDFAVYYCQQFGSSPLTFGGGTKVEIK
B4: ABCB5-Ab42 (antibody, V domains shown)
VH: QVQLVQSGAEVKKPGASVKVSCKTSGYTFTSYYMHWVRQSPGQGLEWMGIINPSGGSTSYAQKFQGRVTMTRDTSTSTVYMELSSLRSEDTAVYYCARDQAVTGTAYYYYYGMDVWGQGTTVTVSS
VL: EIVLTQSPGTLSLSPGERATLSCRASLSVNSNYLAWYQQKPGQAPRLLIYGTSSRATGIPDSFSGSGSGTDFTLTISRLEPEDFAVYYCQQFGSSPLTFGGGTKVEIK
notes: detection was with an anti-human secondary antibody
B5: ABCB5-Ab44 (antibody, V domains shown)
VH: QVQLVQSGAEVKKPGASVKVSCKASGYTFTSYYMHWVRQAPGQGLEWMGIINPSGGSTSYAQKFKGRVTMTRDTSTSTVYMELSSLRSEDTAVYYCARDQAVTGTAYYYYYGMDVWGQGTTVTVSS
VL: EIVLTQSPGTLSLSPGERATLSCRASQSVNSNYLAWYQQKPGQAPRLLIYGTSSRATGIPDSFSGSGSGTDFTLTISRLEPEDFAVYYCQQFGSSPLTFGGGTKVEIK
notes: also called A44; F01
B6: ABCB5-Ab45 (antibody, V domains shown)
VH: QVQLVQSGAEVKKPGASVKVSCKASGYTFTNYYMHWVRQAPGQGPEWMGIINPSGGSTSYAQKFQGRVTMTRDTSTSTVYMELSSLRSEDTAVYYCARDLAVTGTAYYYYYGMDVWGQGTTVTVSS
VL: EFVLTQSPGTLSLSPGERATLSCRASQSVNSNYLAWYQQKPGQAPRLLIYGTSSRATGIPDSFSGSGSGTDFTLTISRLEPEDFAVYYCQQFGSSPLTFGGGTKVEIK

What was measured:
[1] = biological target: T1, 'scrambled' (neg. ctrl.) peptide; experiment: linear peptide ELISA, BSA-conjugated peptides (20 µM), OD 450 nm (mAb-Iso)
Description: (§1) Specificity for ABCB5 of Ab100. ELISAs run against ABCB5 peptide used to make the antibody was examined. The linear peptide ELISA binding study was a comparative assessment of quantitative binding to ABCB5 linear epitope peptide (3rd extracellular loop) and corresponding peptide segments of homologous (ABCB 1, 4, 11) and orthologous (murine ABCB5) proteins—to assess specificity and/or cross-reactivity (see FIG. 2). […] A primate sequence was not tested as the epitope sequence is identical to the human epitope. A scrambled peptide was used as a negative control. All of the tested peptides are all linear peptides, synthetically created to resemble extracellular loop. The X-axis is the Ab concentration. The Y-axis is the optical density of ELISA (signal representing binding). A non-specific signal with isotype antibody has been subtracted, which is why a non-specific isotype antibody is not shown.

[2] = biological target: T2, ABCB4 peptide segment corresponding to …; experiment: as above
Description: as §1

[3] = biological target: T3, ABCB5 linear epitope peptide (3rd …); experiment: as above
Description: as §1

[4] = biological target: T4, cyclic (biotinylated) ABCB5 peptide; experiment: cyclic biotinylated peptide ELISA (200 nM peptide on streptavidin plates), BSA control subtracted (FIG. 4B)
[5] = biological target: T4, cyclic (biotinylated) ABCB5 peptide; experiment: cyclic biotinylated peptide ELISA (200 nM peptide on streptavidin plates), no Ab control subtracted (FIG. 4A)
[6] = biological target: T4, cyclic (biotinylated) ABCB5 peptide; experiment: cyclic biotinylated peptide ELISA (200 nM peptides), curve fit
[7] = biological target: T4, cyclic (biotinylated) ABCB5 peptide; experiment: cyclic biotinylated peptide ELISA (200 nM peptides), curve fit, OD 450 nm
[8] = biological target: T5, cyclic 'scrambled' (neg. ctrl.) peptide; experiment: cyclic biotinylated peptide ELISA (200 nM peptides), OD 450 nm (mAb-average Iso)
[9] = biological target: T1, 'scrambled' (neg. ctrl.) peptide; experiment: linear peptide ELISA, BSA-conjugated peptides (20 µM), OD 450 nm (mAb-Iso (InVivoPlus+))
[10] = biological target: T6, ABCB1 peptide segment corresponding to …; experiment: as above
[11] = biological target: T7, ABCB11 peptide segment corresponding to …; experiment: as above
[12] = biological target: T3, ABCB5 linear epitope peptide (3rd …); experiment: as above
[13] = biological target: T4, cyclic (biotinylated) ABCB5 peptide; experiment: cyclic biotinylated peptide ELISA (200 nM peptides), broad range of mAb concentrations, curve fit
[14] = biological target: T4, cyclic (biotinylated) ABCB5 peptide; experiment: cyclic biotinylated peptide ELISA (200 nM peptides), broad range of mAb concentrations, curve fit, OD 450 nm
[15] = biological target: T4, cyclic (biotinylated) ABCB5 peptide; experiment: cyclic biotinylated peptide ELISA (200 nM peptides), broad range of mAb concentrations, OD 450 nm (mAb-average Iso)
[16] = biological target: T1, 'scrambled' (neg. ctrl.) peptide; experiment: linear peptide ELISA, BSA-conjugated peptides (20 µM), OD 450 nm (mAb-Iso (InVivoPlus+))
[17] = biological target: T6, ABCB1 peptide segment corresponding to …; experiment: as above
[18] = biological target: T7, ABCB11 peptide segment corresponding to …; experiment: as above
[19] = biological target: T3, ABCB5 linear epitope peptide (3rd …); experiment: as above

Binder | binding result [1] | binding result [2] | binding result [3] | Kd [4] | Kd [5] | Kd [6] | Bmax [7] | binding result [8] | binding result [9] | binding result [10] | binding result [11] | binding result [12] | Kd [13] | Bmax [14] | EC50 (read off the curve) [15] | binding result [16] | binding result [17] | binding result [18] | binding result [19]
B1 | no binding (tested: 50 µg/mL) | no binding (tested: 50 µg/mL) | binds | 6.16 µg/mL and 41.3 nM | 4.93 µg/mL and 33.1 nM |  |  |  |  |  |  |  |  |  |  |  |  |  | 
B2 |  |  |  |  |  | 0.0283 µg/mL and 0.19 nM | 3.33 | no binding (tested: 1 µg/ml) | no binding (tested: 50 µg/ml) | no binding (tested: 50 µg/ml) | no binding (tested: 50 µg/ml) | binds | 0.039 µg/mL and 0.261 nM | 3.83 | ~0.04 µg/mL |  |  |  | 
B3 |  |  |  |  |  | 0.0204 µg/mL and 0.137 nM | 3.24 | no binding (tested: 1 µg/ml) |  |  |  |  | 0.0345 µg/mL and 0.231 nM | 3.77 | ~0.04 µg/mL | no binding (tested: 50 µg/ml) | no binding (tested: 50 µg/ml) | no binding (tested: 50 µg/ml) | binds
B4 |  |  |  |  |  | 0.0222 µg/mL and 0.149 nM | 3.17 | no binding (tested: 1 µg/ml) |  |  |  |  | 0.0471 µg/mL and 0.316 nM | 4.09 | ~0.04 µg/mL | no binding (tested: 50 µg/ml) | no binding (tested: 50 µg/ml) | no binding (tested: 50 µg/ml) | binds
B5 |  |  |  |  |  | 0.00917 µg/mL and 0.0615 nM | 3.23 | no binding (tested: 1 µg/ml) |  |  |  |  | 0.0335 µg/mL and 0.225 nM | 3.99 | ~0.04 µg/mL | no binding (tested: 50 µg/ml) | no binding (tested: 50 µg/ml) | no binding (tested: 50 µg/ml) | binds
B6 |  |  |  |  |  | 0.00456 µg/mL and 0.0306 nM | 3.2 | no binding (tested: 1 µg/ml) |  |  |  |  | 0.0205 µg/mL and 0.138 nM | 3.71 | ~0.02 µg/mL | no binding (tested: 50 µg/ml) | no binding (tested: 50 µg/ml) | no binding (tested: 50 µg/ml) | binds
